Results reported in the supplement of paper PMC9170038.

Assays:
[1] = system: MS2 coat protein; experiment: apparent KD of MS2 coat protein; designed switch direction (-1 OFF switch, 1 ON switch): 1; higher = weaker reporter binding
Method in brief: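 The buffer was Tris-HCl pH 7.5 with KCl, MgCl2, BSA, DTT, tRNA and Tween-20. In it, SNAP-549-labelled MS2 coat protein was titrated in doubling steps from 0.7 or 1.5 nM to 3 µM over chip-bound RNA switches transcribed by stalled E. coli RNA polymerase on Illumina chips. Apparent KD is the per-design median over clusters of curve fits to normalised fluorescence.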

[2] = system: MS2 coat protein; experiment: apparent KD of MS2 coat protein; higher = weaker reporter binding; conditions: Eterna round: R107
Method in brief: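 In 100 mM Tris-HCl pH 7.5 with 80 mM KCl and 4 mM MgCl2, and without or with constant ligand, SNAP-549-labelled MS2 coat protein was titrated in twofold steps from 0.7 or 1.5 nM to 3 µM. Per-step times went from 0.8–1.5 h down to 10–20 min. The RNA switches were transcribed on-chip from Illumina sequencing clusters, and apparent KD is the per-design median of normalised cluster binding-curve fits.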

[3] = input ligand: microRNA oligo, concentration not stated
[4] = input ligand: theophylline 20 uM
[5] = input ligand: theophylline 2 mM
[6] = input ligand: tryptophan 2.4 mM

Q: “AAAAAACAUGAGGAUCACCCAUGUAAAAAAAACACAGGAUAUCCCUUUUUUAAAAAAAAAGGAGAAGGGUGAAAAA [Nob's Hobby 7 - Jieux - Same State 1] (Eterna round: R96, puzzle: Same State 1)” was tested. Which “apparent KD of MS2 coat protein” value [1, 3] did it give?
A: 36.4 nM

Q: What does the source list for “AAACACAUGAGGAUCACCCAUGUAGCGCCAUUGAGGCGCACAUAGGAUAUCCGGUCCAAAAGACCGGAGAAGGGUGAAAGAAAA [Soesen] (Eterna round: R96, puzzle: Same State NG 3)”?
A: apparent KD of MS2 coat protein ([1]; input ligand: FMN 200 uM): 125 nM; apparent KD of MS2 coat protein [1, 3]: 166 nM; apparent KD of MS2 coat protein ([1]; input ligand: none): 146 nM

Q: Which “apparent KD of MS2 coat protein” value ([1]; input ligand: FMN 200 uM) does the source give for “AAACGGGCUACAGGAUAUGCUCGAUAAACUUCAGUAGAAGGGUGGCCUUAUCAACGAACAUGAGGAUCACCCAUGUUCUACAAC [Dianrisole] (Eterna round: R96, puzzle: Same State NG 1)” here?
A: 77.2 nM

Q: What about the “apparent KD of MS2 coat protein” value [1, 3] of the same sequence?
A: 28.3 nM

Q: And the “apparent KD of MS2 coat protein” value ([1]; input ligand: none)?
A: 136 nM

Q: “AAACUCGUUGAAGGAUAUCCGGCAGCUAACAAACCGUAACAUGAGGAUCACCCAUGUGUUAGAAAGGAGAAGGUCAGUGACCGG [Eternabot solution 34] (Eterna round: R96, puzzle: Same State NG 2)” was tested. Which “apparent KD of MS2 coat protein” value ([1]; input ligand: FMN 200 uM) did it give?
A: 17.2 nM

Q: What about the “apparent KD of MS2 coat protein” value [1, 3] of the same sequence?
A: 15.9 nM

Q: And the “apparent KD of MS2 coat protein” value ([1]; input ligand: none)?
A: 22.3 nM

Q: What does the source list for “AAAGAAAACGCAGGAUAUACCCGGGAAACCGAGGUAGAAGGGUGAACCAAAACAAAACUAAAUAACAUGAGGAUCACCCAUGUC [Biarzara] (Eterna round: R96, puzzle: Same State NG 1)”?
A: apparent KD of MS2 coat protein ([1]; input ligand: FMN 200 uM): 162 nM; apparent KD of MS2 coat protein [1, 3]: 12.7 nM; apparent KD of MS2 coat protein ([1]; input ligand: none): 132 nM

Q: Which results are given for “AAAGGAUGAUUAUACAUGAGGAUCACCCAUGUUUGUAAUACUAAGGAUAUGUGACUUAAUUGUGAACAGAAGGUAGGUUCAUGA [AK SSNG3-V2-1] (Eterna round: R96, puzzle: Same State NG 3)”?
A: apparent KD of MS2 coat protein ([1]; input ligand: FMN 200 uM): 56.8 nM; apparent KD of MS2 coat protein [1, 3]: 43.6 nM; apparent KD of MS2 coat protein ([1]; input ligand: none): 62.2 nM

Q: With “AAAUAAAACACAGGAUAUGCAACCAAAACGGCGGCAGAAGGGUGAGACAUGAGGAUCACCCAUGUACACGUCCCACGGACGUGC [Arorraed] (Eterna round: R96, puzzle: Same State NG 1)” as the sequence, how does the “apparent KD of MS2 coat protein” value ([1]; input ligand: FMN 200 uM) read?
A: 392 nM

Q: And the “apparent KD of MS2 coat protein” value [1, 3]?
A: 9.43 nM

Q: And the “apparent KD of MS2 coat protein” value ([1]; input ligand: none)?
A: 88.4 nM

Q: For “AAAUAAUAGGCAGGAUAUGGGAAAGGAAGUGUACCAGAAGGGCCGCAACUCAAUACAACAUGAGGAUCACCCAUGUUAGUGUCG [PowerStrip SSNG 1.5] (Eterna round: R96, puzzle: Same State NG 1)”, which “apparent KD of MS2 coat protein” value ([1]; input ligand: FMN 200 uM) is on record?
A: 10.2 nM

Q: What about the “apparent KD of MS2 coat protein” value [1, 3] of the same sequence?
A: 14.9 nM

Q: What about the “apparent KD of MS2 coat protein” value ([1]; input ligand: none) of the same sequence?
A: 15.7 nM

Q: “AACAAUCUAUCUGAGGAUAUCAUGAAAAAAACAUGAGGAUCACCCAUGUGCAGGAAAACUGCAUAUGAGAAGGCAGAUAGAUUGG [salish99_SS2_r3_003] (Eterna round: R96, puzzle: Same State 2)” was tested. Which “apparent KD of MS2 coat protein” value [1, 3] did it give?
A: 494 nM

Q: What does the source list for “AACAAUCUAUCUGAGGAUAUCAUGAAAAAAACAUGAGGAUCACCCAUGUGCAGGAAAACUGCAUAUGAGAAGGCAGAUAGAUUGG [salish99_SS2_r3_003] (puzzle: Same State 2)”?
A: apparent KD of MS2 coat protein ([1]; Eterna round: R95, input ligand: FMN 200 uM): 23.2 nM; apparent KD of MS2 coat protein ([1]; Eterna round: R95, input ligand: microRNA oligo, concentration not stated): 589 nM; apparent KD of MS2 coat protein ([1]; Eterna round: R95, input ligand: none): 814 nM

Q: “UGCAUGAUCUGAAGGAGCGUGUAUGAUGAUAACAUGAGGAUCACCCAUGUCGAGACGGUAACACAGGUAGGUCGCAGAUCAUGCU [Arg B SS t4]” was tested. Which “apparent KD of MS2 coat protein” value ([2]; input ligand: arginine 13.2 mM) did it give?
A: 21.4 nM

Q: And the “apparent KD of MS2 coat protein” value ([2]; input ligand: none)?
A: 23.2 nM

Q: What about the “apparent KD of MS2 coat protein” value [2, 4] of the same sequence?
A: 31.7 nM

Q: And the “apparent KD of MS2 coat protein” value [2, 5]?
A: 28.3 nM

Q: What about the “apparent KD of MS2 coat protein” value [2, 6] of the same sequence?
A: 24.7 nM

Q: Which “apparent KD of MS2 coat protein” value ([2]; input ligand: arginine 13.2 mM) does the source give for “UGGCGAGAAGGAAGGAGCGUCAGCUGAGUCACAUGAGGAUCACCCAUGUAGGACAUGGUGUGACAGGUAGGUCGCCUUCUGCCCU [SS-ArgB18]” here?
A: 16.9 nM

Q: What about the “apparent KD of MS2 coat protein” value ([2]; input ligand: none) of the same sequence?
A: 14.6 nM

Q: And the “apparent KD of MS2 coat protein” value [2, 4]?
A: 25.7 nM

Q: What about the “apparent KD of MS2 coat protein” value [2, 5] of the same sequence?
A: 22.5 nM

Q: What about the “apparent KD of MS2 coat protein” value [2, 6] of the same sequence?
A: 13 nM

Q: What does the source list for “UGGGUACAUGAGGAUCACCCAUGUACUGAAGGAGCGAGAAAUAACUCAGGUAGGUCGCAGACAUGAGGAUCACCCAUGUAAUAAA [Exclusion Arginine A GF 10]”?
A: apparent KD of MS2 coat protein ([2]; input ligand: arginine 13.2 mM): 16 nM; apparent KD of MS2 coat protein ([2]; input ligand: none): 18 nM; apparent KD of MS2 coat protein [2, 4]: 23.4 nM; apparent KD of MS2 coat protein [2, 5]: 22.5 nM; apparent KD of MS2 coat protein [2, 6]: 18 nM

Q: Which results are given for “UGGUAGGUAGGAAGGAGCGCAUACUUCACAUGAGGAUCACCCAUGUCGAGACGUGAGUCAGUGCAGGUAGGUCGCCUAGUUAUGA [Same State - Arginine B (Freestyle 23)]”?
A: apparent KD of MS2 coat protein ([2]; input ligand: arginine 13.2 mM): 30.4 nM; apparent KD of MS2 coat protein ([2]; input ligand: none): 36.4 nM; apparent KD of MS2 coat protein [2, 4]: 36.1 nM; apparent KD of MS2 coat protein [2, 5]: 37.6 nM; apparent KD of MS2 coat protein [2, 6]: 30.3 nM

Q: Which results are given for “UGUAACAUGAGGAUCACCCAUGUGAGUGAUACCAGAUUAGUAUUAGUCCCUUGGCAGCACAUUGGGCGAGUGUAUAGUCUAUGCG [Same State - Theophylline A (Freestyle 12)]”?
A: apparent KD of MS2 coat protein ([2]; input ligand: arginine 13.2 mM): 106 nM; apparent KD of MS2 coat protein [2, 4]: 197 nM; apparent KD of MS2 coat protein [2, 6]: 135 nM

Q: For “UGUAUAUACGGAAGGAGCGUGUAAGAUUAAGAACAUGAGGAUCACCCAUGUUUUAAGGGAACACAGGUAGGUCGCCGUAUAUAUG [11.O]”, which “apparent KD of MS2 coat protein” value ([2]; input ligand: arginine 13.2 mM) is on record?
A: 9.29 nM

Q: What about the “apparent KD of MS2 coat protein” value ([2]; input ligand: none) of the same sequence?
A: 12.4 nM

Q: What about the “apparent KD of MS2 coat protein” value [2, 4] of the same sequence?
A: 14.1 nM

Q: What about the “apparent KD of MS2 coat protein” value [2, 5] of the same sequence?
A: 11.7 nM

Q: And the “apparent KD of MS2 coat protein” value [2, 6]?
A: 10.3 nM

Q: What does the source list for “UGUAUGGACUGAAGGAGCGCCUCAAAACAUGAGGAUCACCCAUGUGGACAAUAAGUCCUUGGGCAGGUAGGUCGCAGUCCAUACU [ArgBX 6 #StaticStem #MS2Late]”?
A: apparent KD of MS2 coat protein ([2]; input ligand: arginine 13.2 mM): 81.4 nM; apparent KD of MS2 coat protein ([2]; input ligand: none): 50 nM; apparent KD of MS2 coat protein [2, 4]: 84.6 nM; apparent KD of MS2 coat protein [2, 5]: 85.3 nM; apparent KD of MS2 coat protein [2, 6]: 60.9 nM

Q: With “UGUAUGGACUGAAGGAGCGGAUGAUAACCUGAGGAUCACCCGGGUAAUAAGGCGAAAGCCAUCCAGGUAGGUCGCAGUCCAUACU” as the sequence, how does the “apparent KD of MS2 coat protein” value ([2]; input ligand: arginine 13.2 mM) read?
A: 53.2 nM

Q: What about the “apparent KD of MS2 coat protein” value ([2]; input ligand: none) of the same sequence?
A: 101 nM

Q: And the “apparent KD of MS2 coat protein” value [2, 4]?
A: 111 nM

Q: And the “apparent KD of MS2 coat protein” value [2, 5]?
A: 126 nM

Q: What about the “apparent KD of MS2 coat protein” value [2, 6] of the same sequence?
A: 82.9 nM

Q: Which “apparent KD of MS2 coat protein” value ([2]; input ligand: arginine 13.2 mM) does the source give for “UGUAUGGACUGAAGGAGCGGGUAAUAAACCUGAGGAUCACCCAGGUAAUAGGCGAAAGCCGCCCAGGUAGGUCGCAGUCCAUACU” here?
A: 13.2 nM

Q: And the “apparent KD of MS2 coat protein” value ([2]; input ligand: none)?
A: 13.5 nM

Q: And the “apparent KD of MS2 coat protein” value [2, 4]?
A: 13.7 nM

Q: And the “apparent KD of MS2 coat protein” value [2, 5]?
A: 11.7 nM

Q: What about the “apparent KD of MS2 coat protein” value [2, 6] of the same sequence?
A: 12.5 nM
